What all share (assay): two-hybrid
The target of data set [1] is Chs4p^C693S (S. cerevisiae) (UniProt P34226).
The target of another data set is Cdc10p (S. cerevisiae) (UniProt P25342).
Another data set addresses Chs4p (S. cerevisiae) (UniProt P34226).
The data set “two-hybrid” concerns the molecule itself.
For a further data set, the target named is T1, Chs4p^C693S (S. cerevisiae, UniProt P34226 1-696, C693S).
T1 sequence (looked up): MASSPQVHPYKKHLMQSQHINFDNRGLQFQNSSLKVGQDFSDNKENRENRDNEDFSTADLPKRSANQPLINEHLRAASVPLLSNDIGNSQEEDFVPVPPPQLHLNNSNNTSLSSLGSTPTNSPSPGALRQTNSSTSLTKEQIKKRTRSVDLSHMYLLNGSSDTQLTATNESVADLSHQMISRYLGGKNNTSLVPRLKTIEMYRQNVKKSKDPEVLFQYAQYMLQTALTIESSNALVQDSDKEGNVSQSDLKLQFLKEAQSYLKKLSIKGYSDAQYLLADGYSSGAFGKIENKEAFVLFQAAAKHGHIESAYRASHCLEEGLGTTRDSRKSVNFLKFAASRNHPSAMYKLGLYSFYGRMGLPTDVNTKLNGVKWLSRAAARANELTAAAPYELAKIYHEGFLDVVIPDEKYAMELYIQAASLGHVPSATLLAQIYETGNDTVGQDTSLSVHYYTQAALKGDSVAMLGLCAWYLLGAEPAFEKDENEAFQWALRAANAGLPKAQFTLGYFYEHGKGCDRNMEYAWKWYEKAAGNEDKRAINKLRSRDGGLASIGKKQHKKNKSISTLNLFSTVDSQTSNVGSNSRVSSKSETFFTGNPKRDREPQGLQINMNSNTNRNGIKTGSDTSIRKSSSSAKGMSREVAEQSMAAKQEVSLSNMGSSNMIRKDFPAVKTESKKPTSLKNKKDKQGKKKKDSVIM

A further data set concerns the target T2, Chs4p (S. cerevisiae, UniProt P34226 1-696).
T2 sequence (looked up): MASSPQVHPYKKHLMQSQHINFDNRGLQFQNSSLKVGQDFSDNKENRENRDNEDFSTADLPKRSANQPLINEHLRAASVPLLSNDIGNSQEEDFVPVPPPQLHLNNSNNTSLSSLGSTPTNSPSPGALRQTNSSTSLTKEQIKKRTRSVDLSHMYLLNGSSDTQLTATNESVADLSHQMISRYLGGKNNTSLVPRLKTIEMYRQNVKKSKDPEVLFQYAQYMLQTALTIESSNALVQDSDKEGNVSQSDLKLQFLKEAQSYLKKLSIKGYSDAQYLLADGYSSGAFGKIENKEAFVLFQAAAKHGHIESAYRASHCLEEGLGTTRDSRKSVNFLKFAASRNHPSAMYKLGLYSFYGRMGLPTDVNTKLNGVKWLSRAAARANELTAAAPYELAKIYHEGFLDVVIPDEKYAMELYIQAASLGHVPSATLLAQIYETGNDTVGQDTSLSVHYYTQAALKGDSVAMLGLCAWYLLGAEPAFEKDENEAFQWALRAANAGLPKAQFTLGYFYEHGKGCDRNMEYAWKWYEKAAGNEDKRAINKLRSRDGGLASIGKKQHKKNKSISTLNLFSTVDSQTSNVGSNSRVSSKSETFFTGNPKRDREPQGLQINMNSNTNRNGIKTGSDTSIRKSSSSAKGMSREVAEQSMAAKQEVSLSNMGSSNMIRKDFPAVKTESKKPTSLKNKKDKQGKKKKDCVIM

Sequence of Cdc10p (S. cerevisiae) (P25342 whole entry): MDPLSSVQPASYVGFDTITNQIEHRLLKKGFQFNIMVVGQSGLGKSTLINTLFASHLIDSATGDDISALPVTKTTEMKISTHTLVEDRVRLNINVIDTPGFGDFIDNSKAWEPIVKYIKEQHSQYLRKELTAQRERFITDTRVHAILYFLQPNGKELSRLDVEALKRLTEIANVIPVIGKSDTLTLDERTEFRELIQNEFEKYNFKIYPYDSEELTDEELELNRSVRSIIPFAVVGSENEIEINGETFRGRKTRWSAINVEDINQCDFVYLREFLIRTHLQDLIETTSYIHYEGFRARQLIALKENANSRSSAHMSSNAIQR

For the molecule “Bni4pE (from UniProt P53858 65-730) (domain or fragment)”, the units of β-galactosidase activity (units of β-galactosidase activity) in data set [1] worked out at 2220; in the data set with Cdc10p (S. cerevisiae), 1010; in the data set with Chs4p (S. cerevisiae), 238.

B1: Chs3p^Δ700 (domain or fragment, S. cerevisiae, UniProt P29465 1-700, looked up)
chain: MTGLNGDDPDDYYLNLNQDEESLLRSRHSVGSGAPHRQGSLVRPERSRLNNPDNPHFYYAQKTQEQMNHLDVLPSSTGVNPNATRRSGSLRSKGSVRSKFSGRETDSYLLQDMNTTDKKASVKISDEGVAEDEFDKDGDVDNFEESSTQPINKSIKPLRKETNDTLSFWQMYCYFITFWAPAPILAFCGMPKKERQMAWREKVALISVILYIGAIVAFLTFGFTKTVCSSSKLRLKNNEVSTEFVVINGKAYELDTSSRSGIQDVEVDSDTLYGPWSDAGKDASFLFQNVNGNCHNLITPKSNSSIPHDDDNNLAWYFPCKLKNQDGSSKPNFTVENYAGWNCHTSKEDRDAFYGLKSKADVYFTWDGIKNSSRNLIVYNGDVLDLDLLDWLEKDDVDYPVVFDDLKTSNLQGYDLSLVLSNGHERKIARCLSEIIKVGEVDSKTVGCIASDVVLYVSLVFILSVVIIKFIIACYFRWTVARKQGAYIVDNKTMDKHTNDIEDWSNNIQTKAPLKEVDPHLRPKKYSKKSLGHKRASTFDLLKKHSSKMFQFNESVIDLDTSMSSSLQSSGSYRGMTTMTTQNAWKLSNENKAVHSRNPSTLLPTSSMFWNKATSSPVPGSSLIQSLDSTIIHPDIVQQPPLDFMPYGFPLIHTICFVTCYSEDEEGLRTTLDSLSTTDYPNSHKLLMVVCDGLIKGSGN
As for B1, the “units of β-galactosidase activity” value is 123 units of β-galactosidase activity in the data set “two-hybrid”, 568 units of β-galactosidase activity with Chs4p^C693S and 617 units of β-galactosidase activity in the data set with Chs4p.

The values are drawn from article PMC2139831 (The Journal of Cell Biology, 1997).
